The text below walks through data of patent US20060251652A1 (APPLIED MOLECULAR EVOLUTION, published 2006).

The assay addresses T1, human CD20 (human, UniProt P11836 1-297).
T1 construct: whole, on cells; Always presented on cells (fixed Ramos cells in ELISA; live cells in flow cytometry and KinExA-type assays); also called hCD20; Bp35
T1 sequence (looked up): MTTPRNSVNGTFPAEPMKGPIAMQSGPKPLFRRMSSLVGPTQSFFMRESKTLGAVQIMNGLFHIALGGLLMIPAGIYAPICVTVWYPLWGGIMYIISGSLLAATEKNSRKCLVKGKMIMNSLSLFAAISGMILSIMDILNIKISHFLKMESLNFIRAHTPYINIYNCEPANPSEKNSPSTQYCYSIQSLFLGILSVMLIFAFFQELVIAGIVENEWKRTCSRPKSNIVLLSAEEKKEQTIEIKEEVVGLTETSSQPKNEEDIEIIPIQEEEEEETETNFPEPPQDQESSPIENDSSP
Kind of assay: ELISA on formalin-fixed Ramos cells, off-rate format: after the Fab incubation the plate stood overnight in PBS/BSA before anti-His6 peroxidase, OD 450. The protocol:
Ramos cells (ATCC) were grown in RPMI 1640 containing 10% heat inactivated Fetal Bovine Serum. […] Media was gently aspirated and […] of aqueous buffered zinc formalin (Anatech, Ltd.) was added to each well for 15 minutes at room temperature. Z-fix was removed and the plate was washed with phosphate-buffered saline (PBS) containing 0.05% Tween 20. The plate was blocked for 1 hour with 1% bovine serum albumin (BSA) in PBS. Dilutions of Fab or IgG were incubated with the fixed and blocked Ramos cells for 1 hour at room temperature. The plate was washed 3× with PBS 0.05% Tween […] of anti-His6 Peroxidase Mouse Monoclonal Antibody (Roche Diagnostics Corporation) at a 1:500 dilution were added to the wells and incubated 1 hour at room temperature. The plate was washed as above and developed with tetramethyl benzidine, and the reaction was stopped with 5N H₂SO₄. The plate absorbance was read at OD 450 nm. Dilutions of Fab and conjugate were in 1% BSA/PBS.
IgG assays were performed similarly except IgG bound was detected with goat anti-human IgG-HRP. To compare antibody off-rate, after incubation with Fab or IgG the plates were incubated over night in PBS/BSA, before proceeding with the second antibody step. To compare antibody on-rate, incubation steps for Fab/IgG binding and with the second antibody were both of 5 minutes duration.
(In an ELISA, binding on a coated surface is turned into a signal by an enzyme label.)

B1: AME 33 Fab (Fab, V domains shown)
VH: EVQLVQSGAEVKKPGESLKISCKGSGRTFTSYNMHWVRQMPGKGLEWMGAIYPLTGDTSYNQKSKLQVTISADKSISTAYLQWSSLKASDTAMYYCARSTYVGGDWQFDVWGKGTTVTVSS
VL: EIVLTQSPGTLSLSPGERATLSCRASSSVPYIHWYQQKPGQAPRLLIYATSALASGIPDRFSGSGSGTDFTLTISRLEPEDFAVYYCQQWLSNPPTFGQGTKLEIK
notes: Fab
As to B1, the EC50 (read off the curve) (usually the midpoint of the concentration-response curve) is around 0.3 µg/mL.
